Read-outs that look alike come from different tables or passages of the source. Blank lines part the entries; values can stand above or below the binder they belong to.
Assays:
recombinant CD229 [1] = target: T1, recombinant CD229 (human, UniProt Q9HBG7 48-454); assay: SPR
T1 chain: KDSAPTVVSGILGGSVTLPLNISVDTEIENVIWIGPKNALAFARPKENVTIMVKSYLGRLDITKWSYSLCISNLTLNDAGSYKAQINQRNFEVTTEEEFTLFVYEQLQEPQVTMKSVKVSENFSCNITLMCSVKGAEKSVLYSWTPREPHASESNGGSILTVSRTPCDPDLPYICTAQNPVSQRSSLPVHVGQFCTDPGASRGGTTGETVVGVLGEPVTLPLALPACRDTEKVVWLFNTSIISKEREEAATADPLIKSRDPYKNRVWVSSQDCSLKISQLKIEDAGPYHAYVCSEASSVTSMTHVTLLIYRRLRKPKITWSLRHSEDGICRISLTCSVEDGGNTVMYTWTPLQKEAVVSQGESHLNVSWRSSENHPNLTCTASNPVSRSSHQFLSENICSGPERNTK

recombinant CD229 [2] = target: T1, recombinant CD229; assay: SPR
recombinant CD229 [3] = target: T2, recombinant CD229 (human, UniProt Q9HBG7 48-454, limits assumed); assay: competition SPR on immobilized CD229
T2 construct: Labeled with allophycocyanin in the CAR flow cytometry assay; also called APC-labeled recombinant CD229; immobilized recombinant CD229
T2 sequence (looked up): T1 chain
Source text: FIGS. 5A, 5B, 5C, 5D, and 5E show the binding, cross-reactivity, and selectivity of anti CD229 CAR T cells. (A) Cross-reactivity screening of 2 anti-CD229 antibody clones expressed as scFv-Fc constructs in mammalian cells by TRF assay using recombinant SLAM family members. […] (B) Cytotoxic activity of primary human T cells expressing CAR constructs based on two antibodies or GFP alone against CD229 positive myeloma cell line U266 and healthy autologous T cells as determined by flow cytometry. Anti-CD229 CARs specifically kill myeloma cells but not healthy T cells co-expressing CD229. […] (E) Competition SPR using immobilized CD229 and sequential injections of the primary antibodies followed by individual injection of antibodies to determine their ability to compete for the epitope recognized by the primary antibody. 1D5 and 2D3 occupy the same epitope space while 2A2 binds to a distinct epitope. Due to the lack of self-competition, 2A2 most likely binds to an epitope occurring twice in recombinant CD229, a tandem Ig domain-containing protein.

recombinant CD229 [4] = target: T2, recombinant CD229; assay: flow cytometry of 293T cells expressing the CAR, stained with APC-labeled recombinant CD229
Method: In the final CAR construct, the scFv can be joined directly to a 45 amino acid hinge domain, which can alter binding properties of the antibodies. […] 20 of the 23 unique scFv binders still recognized CD229 with the new C-terminal fusion partner. All 23 unique binders were cloned into the CAR vector (FIG. 7D). The second-generation CAR construct uses a CD8α hinge and transmembrane domain with a CD3ζ signaling and a 4-1BB costimulatory domain. In addition, a hemagglutinin (HA) tag was added between the scFv and hinge domains to allow the simultaneous assessment of antigen binding and surface expression (FIG. 7D).

- Kd (recombinant CD229 [1]): 18.4 nM
- Kd (recombinant CD229 [2]): 18.4 nM
- binding result (recombinant CD229 [3]): binds
B1: anti-CD229 antibody clone 2A2 expressed as scFv-Fc (Fc fusion)
chain: QMQLVQSGAEVKKPGSSVKVSCKASGGTFSSYAISWVRQAPGQGLEWMGGIIPIFGTANYAQKFQGRVTITADKSTSTAYMELSSLRSDDTAVYYCARDELWATNYYYMDVWGKGTLVTVSSLEGGGGSGGGGSGGGASQSALTQPRSVSGSPGQSVTISCTGTSSDVGSYNYVSWYQQSPGKAPKLMIYDVSNRPSGVSNRFSGSKSGNTASLTISGLQSEDEADYYCTSYGSYDIPVIFGGGTKLTVLG
notes: scFv fused C-terminally to an immunoglobulin Fc domain, expressed in mammalian cells; not shown: immunoglobulin Fc domain

- binding result (recombinant CD229 [4]): binds
B2: anti-CD229 CAR construct, Clone 2A2 (other)
chain: B1 chain
notes: CAR expressed on cells; also called anti-CD229 CAR clone 2A2; not shown: HA tag, CD8alpha hinge and transmembrane domain, 4-1BB co-stimulatory and CD3zeta signaling domains

- binding result (recombinant CD229 [4]): binds
B3: anti-CD229 CAR construct, Clone 1A9 (other)
chain: QITLKESGPTLVKPTQTLTLTCTFSGFSLSTSGVGVGWIRQPPGKALEWLALIYWNDDKRYSPSLKSRLTIAKDTSKNQVVLTMTNMDPVDTATYYCARMGWNDPHMVDYWGQGTLVTVSSLEGGGGSGGGGSGGGASDIQMTQSPSSLSASVGDRVTITCRASQSIGSSLHWYQQKPGKAPKFLIYDASSLESGVPSRFSGSGSGTEFTLTISSLQPDDFATYYCQQYNSYPLTFGGGTKLEIKR
notes: CAR expressed on cells; not shown: HA tag, CD8alpha hinge and transmembrane domain, 4-1BB co-stimulatory and CD3zeta signaling domains

Reference: US20190330338A1 (UNIVERSITY OF UTAH RESEARCH FOUNDATION, published 2019)
